Measurements reported in EP4755915A1 (Medytox Inc., dated 2026).
Values belong to the binder of their own block, whether it stands above or below them.

What was measured:
[1] = target: AChR (A, B, D and E) expressed on recombinant 293T cells; assay: cell-based or functional assay
[2] = target: T1, fetal acetylcholine receptor (AChR) on the cell membrane of TE671 cells (human, UniProt P02708 21-457; P11230 24-501; Q07001 22-517; P07510 23-517); assay: flow cytometry competition on TE671 cells expressing fetal AChR; competitor biotinylated mAb637 at 8 µg/ml, detected with labelled streptavidin
T1 construct: whole, on cells; The subunit make-up (alpha2, beta, gamma, delta) is general knowledge of the fetal receptor; also called autoantigen AChR
T1 sequence (P02708 21-457, chain 1 of 4): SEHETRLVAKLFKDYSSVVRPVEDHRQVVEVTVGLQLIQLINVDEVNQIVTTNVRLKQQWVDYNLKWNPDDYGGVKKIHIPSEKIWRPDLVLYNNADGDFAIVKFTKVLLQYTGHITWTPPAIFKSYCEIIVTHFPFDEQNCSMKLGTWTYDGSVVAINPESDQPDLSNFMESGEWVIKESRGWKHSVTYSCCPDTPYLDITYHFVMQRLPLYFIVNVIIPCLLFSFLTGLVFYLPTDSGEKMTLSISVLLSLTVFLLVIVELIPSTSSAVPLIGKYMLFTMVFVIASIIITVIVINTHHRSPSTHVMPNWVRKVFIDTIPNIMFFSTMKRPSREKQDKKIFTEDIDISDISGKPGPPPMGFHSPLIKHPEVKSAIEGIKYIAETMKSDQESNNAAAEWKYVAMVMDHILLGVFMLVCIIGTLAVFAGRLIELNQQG
T1 sequence (P11230 24-501, chain 2 of 4): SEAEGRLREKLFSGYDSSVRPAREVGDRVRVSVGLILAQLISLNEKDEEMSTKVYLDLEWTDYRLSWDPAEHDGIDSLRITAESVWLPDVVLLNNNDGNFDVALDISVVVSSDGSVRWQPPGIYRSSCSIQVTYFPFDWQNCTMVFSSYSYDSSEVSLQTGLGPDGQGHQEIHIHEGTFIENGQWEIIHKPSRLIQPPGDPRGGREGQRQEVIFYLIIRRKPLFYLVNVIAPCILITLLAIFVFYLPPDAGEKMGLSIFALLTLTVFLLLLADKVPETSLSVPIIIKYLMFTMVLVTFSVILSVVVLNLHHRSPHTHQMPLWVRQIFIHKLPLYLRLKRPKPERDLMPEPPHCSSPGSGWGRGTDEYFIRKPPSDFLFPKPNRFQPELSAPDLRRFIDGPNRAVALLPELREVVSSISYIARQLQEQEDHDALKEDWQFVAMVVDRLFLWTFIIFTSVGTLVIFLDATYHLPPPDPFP
T1 sequence (Q07001 22-517, chain 3 of 4): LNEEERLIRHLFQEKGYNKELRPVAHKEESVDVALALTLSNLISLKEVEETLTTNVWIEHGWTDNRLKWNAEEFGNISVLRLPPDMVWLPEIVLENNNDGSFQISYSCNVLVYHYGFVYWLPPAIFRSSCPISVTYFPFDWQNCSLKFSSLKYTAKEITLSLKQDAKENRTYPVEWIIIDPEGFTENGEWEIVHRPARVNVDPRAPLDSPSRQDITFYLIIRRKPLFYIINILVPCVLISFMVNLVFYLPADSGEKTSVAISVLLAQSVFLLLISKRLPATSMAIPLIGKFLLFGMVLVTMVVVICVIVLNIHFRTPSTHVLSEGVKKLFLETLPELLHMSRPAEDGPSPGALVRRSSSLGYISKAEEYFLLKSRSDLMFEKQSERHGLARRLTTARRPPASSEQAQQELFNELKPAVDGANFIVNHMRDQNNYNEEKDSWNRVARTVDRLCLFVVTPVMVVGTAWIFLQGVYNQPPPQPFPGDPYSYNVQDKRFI
T1 sequence (P07510 23-517, chain 4 of 4): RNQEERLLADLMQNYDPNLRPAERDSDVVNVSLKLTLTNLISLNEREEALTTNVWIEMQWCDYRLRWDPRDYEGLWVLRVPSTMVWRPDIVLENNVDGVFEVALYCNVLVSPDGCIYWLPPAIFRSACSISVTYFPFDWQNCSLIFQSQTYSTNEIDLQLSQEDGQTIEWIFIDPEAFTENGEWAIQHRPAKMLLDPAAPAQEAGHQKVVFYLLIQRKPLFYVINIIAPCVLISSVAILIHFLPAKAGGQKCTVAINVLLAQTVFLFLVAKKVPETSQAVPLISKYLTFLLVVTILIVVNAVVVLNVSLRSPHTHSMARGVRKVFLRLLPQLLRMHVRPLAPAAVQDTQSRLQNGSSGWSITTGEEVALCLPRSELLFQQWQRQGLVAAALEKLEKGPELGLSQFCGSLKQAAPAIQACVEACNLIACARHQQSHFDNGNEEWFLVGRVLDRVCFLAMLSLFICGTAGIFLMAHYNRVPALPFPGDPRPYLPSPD

B2: mAb192 C IgG1 (antibody)
heavy: not shown
light: QVQLLESGPGLVQPSQTLSLTCTVSGFSLTTNGVSWVRQPPGKGLEWIAAISSGGSPYYNSALKSRLSINRDTSKSQVFLKMNSLQTEDTAIYFCTREDGWNYFDYWGPGTMVTVSSASVAAPSVFIFPPSDEQLKSGTASVVCLLNNFYPREAKVQWKVDNALQSGNSQESVTEQDSKDSTYSLSSTLTLSKADYEKHKVYACEVTHQGLSSPVTKSFNRGEC
decrease of apoptosis (CDC cell death) caused by humanized mAb35, at 0.15 µg/ml [1]: > 37% | decrease of the ratio of C5b-9 positive cells caused by humanized mAb35, at 0.15 µg/ml [1]: > 60%

B4: mAb637 B (antibody, human IgG2, kappa)
heavy: NFELTQPHSVSESPGKTVTISCTRSSGSIASNYVQWYQQRPGSSPTTVIYEDNQRPSGVPDRFSGSIDSSSNSASLTISGLKTEDEADYYCQSYDSNSGGRVFGGGTKLTVLRTVAAPSVFIFPPSDEQLKSGTASVVCLLNNFYPREAKVQWKVDNALQSGNSQESVTEQDSKDSTYSLSSTLTLSKADYEKHKVYACEVTHQGLSSPVTKSFNRGECERKCCVECPPCPAPPVAGPSVFLFPPKPKDTLMISRTPEVTCVVVDVSQEDPEVQFNWYVDGVEVHNAKTKPREEQFNSTYRVVSVLTVLHQDWLNGKEYKCKVSNKGLPSSIEKTISKAKGQPREPQVYTLPPSQEEMTKNQVSLTCLVKGFYPSDIAVEWESNGQPENYKTTPPVLDSDGSFFLYSRLTVDKSRWQEGNVFSCSVMHEALHNHYTQKSLSLSLGK
light: QVQLLESGGGLVKPGGSLRLSCAASGFKSTDYYMAWVRQAPGRGLEWVSFISGRVFTNYTASVRGRFTVFREDDNTSVYLQMSRLRVEDTAVYYCARLRGIFRGPLKPLEYYFDLWGRGTLVTVSSASTKGPSVFPLAPCSRSTSESTAALGCLVKDYFPEPVTVSWNSGALTSGVHTFPAVLQSSGLYSLSSVVTVPSSNFGTQTYTCNVDHKPSNTKVDKTV
notes: also called candidate antibody
binding result [2]: binds

Further lines, with some results ahead:

decrease of the ratio of C5b-9 positive cells caused by humanized mAb35, at 0.15 µg/ml [1]: > 60%
B1: mAb192 C IgG2/4 (antibody)
heavy: DIQMTQSPPSLSASLGDKVTITCQASQDINKYIAWYQQKPGKAPRQLIRYTSILVLGTPSRFSGSGSGRDFSFSISNVASEDIASYYCLQYGNLYTFGAGTKLEIKRSSASTKGPSVFPLAPCSRSTSESTAALGCLVKDYFPEPVTVSWNSGALTSGVHTFPAVLQSSGLYSLSSVVTVPSSNFGTQTYTCNVDHKPSNTKVDKTVERKCCVECPPCPAPPVAGPSVFLFPPKPKDTLMISRTPEVTCVVVDVSQEDPEVQFNWYVDGVEVHNAKTKPREEQFNSTYRVVSVLTVLHQDWLNGKEYKCKVSNKGLPSSIEKTISKAKGQPREPQVYTLPPSQEEMTKNQVSLTCLVKGFYPSDIAVEWESNGQPENYKTTPPVLDSDGSFFLYSRLTVDKSRWQEGNVFSCSVMHEALHNHYTQKSLSLSLGK
light: B2 light
decrease of apoptosis (CDC cell death) caused by humanized mAb35, at 0.15 µg/ml [1]: > 37%

decrease of the ratio of C5b-9 positive cells caused by humanized mAb35, at 0.15 µg/ml [1]: > 60%
B3: mAb192 C IgG4 (antibody)
heavy: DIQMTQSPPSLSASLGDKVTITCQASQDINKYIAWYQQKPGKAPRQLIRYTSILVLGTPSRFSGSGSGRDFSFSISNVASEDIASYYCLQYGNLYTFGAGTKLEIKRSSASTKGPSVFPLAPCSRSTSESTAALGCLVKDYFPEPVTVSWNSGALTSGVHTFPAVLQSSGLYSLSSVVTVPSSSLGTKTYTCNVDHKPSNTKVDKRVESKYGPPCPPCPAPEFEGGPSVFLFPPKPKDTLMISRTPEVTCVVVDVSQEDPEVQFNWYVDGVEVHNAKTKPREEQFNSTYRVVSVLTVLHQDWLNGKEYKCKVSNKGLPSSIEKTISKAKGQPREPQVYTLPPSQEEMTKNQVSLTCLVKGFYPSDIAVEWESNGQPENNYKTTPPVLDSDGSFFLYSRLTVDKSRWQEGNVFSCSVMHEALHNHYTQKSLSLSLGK
light: B2 light
decrease of apoptosis (CDC cell death) caused by humanized mAb35, at 0.15 µg/ml [1]: > 37%
